Results on 8 molecules are retold here after patent US20230257470A1 (published 2023).

Common to all, as to experiment: SPR (Biacore), FcγR over captured antibody; binding amount relative to IL6R-BF648/IL6R-L x100
A general note: SPR reads the build-up and loss of mass on a sensor chip optically.

One experiment addresses T1, human FcγRIa (human, UniProt P12314 16-292, limits assumed).
T1 construct: also called FcyRIa; CD64

The next experiment concerns the target T2, human FcγRIIa type H (human, UniProt P12318 36-217).
T2 construct: also called FcyRIIaH; FcγRIIa(H)
T2 sequence: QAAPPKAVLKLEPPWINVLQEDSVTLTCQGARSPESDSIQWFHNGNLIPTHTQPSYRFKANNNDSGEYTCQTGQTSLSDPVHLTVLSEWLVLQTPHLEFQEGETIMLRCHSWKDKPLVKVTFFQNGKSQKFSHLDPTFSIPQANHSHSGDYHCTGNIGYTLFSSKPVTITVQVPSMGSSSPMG

The target of the next experiment is T3, human FcγRIIb (human, UniProt P31994 43-217, limits assumed).
T3 construct: also called FcyRIfb; FcγIIB
T3 sequence: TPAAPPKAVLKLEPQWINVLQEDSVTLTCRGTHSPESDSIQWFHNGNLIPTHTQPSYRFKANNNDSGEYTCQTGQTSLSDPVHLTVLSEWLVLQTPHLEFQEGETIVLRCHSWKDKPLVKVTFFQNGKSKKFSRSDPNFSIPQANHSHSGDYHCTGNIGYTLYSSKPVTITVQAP

A further experiment concerns the target T4, human FcγRIIIa type V (human, UniProt P08637 17-208, limits assumed).
T4 construct: also called FcyRIIIa; FcγRIIIaV

T1 sequence (P12314 16-292 limits assumed): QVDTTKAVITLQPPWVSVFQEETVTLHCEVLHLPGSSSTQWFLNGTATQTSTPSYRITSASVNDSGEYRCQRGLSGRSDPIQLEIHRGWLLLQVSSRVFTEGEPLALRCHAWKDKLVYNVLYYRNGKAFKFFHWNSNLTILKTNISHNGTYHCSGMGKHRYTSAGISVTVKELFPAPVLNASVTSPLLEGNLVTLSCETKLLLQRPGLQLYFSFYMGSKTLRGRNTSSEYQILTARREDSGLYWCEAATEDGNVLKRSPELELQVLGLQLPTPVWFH
T4 sequence (P08637 other isoform, or with tags, fused parts or gaps limits assumed): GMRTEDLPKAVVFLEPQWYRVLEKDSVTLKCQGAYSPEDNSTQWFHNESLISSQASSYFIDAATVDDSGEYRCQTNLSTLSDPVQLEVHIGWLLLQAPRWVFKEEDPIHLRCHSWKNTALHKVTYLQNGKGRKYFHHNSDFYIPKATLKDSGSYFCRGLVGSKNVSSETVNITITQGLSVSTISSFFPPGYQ

B1: IL6R-BP116/IL6R-L (antibody, human IgG1, name in EU numbering)
heavy: QVQLQESGPGLVKPSETLSLTCAVSGHSISHDHAWSWVRQPPGEGLEWIGFISYSGITNYNPSLQGRVTISRDNSKNTLYLQMNSLRAEDTAVYYCARSLARTTAMDYWGEGTLVTVSSASTKGPSVFPLAPSSKSTSGGTAALGCLVKDYFPEPVTVSWNSGALTSGVHTFPAVLQSSGLYSLSSVVTVPSSSLGTQTYICNVNHKPSNTKVDKKVEPKSCDKTHTCPPCPAPELLGGDSVFLFPPKPKDTLMISRTPEVTCVVVDVSHEDPEVKFNWYVDGVEVHNAKTKPREEQYNSTYRVVSVLTVLHQDWLNGKEYKCKVSNTALPAPIEKTISKAKGQPREPQVYTLPPSRDELTKNQVSLTCLVKGFYPSDIAVEWESNGQPENNYKTTPPVLDSDGSFFLYSKLTVDKSRWQQGNVFSCSVMHEALHNHYTQESLSLSP
light: DIQMTQSPSSLSASVGDRVTITCRASQDISSYLNWYQQKPGKAPKLLIYYTSRLHSGVPSRFSGSGSGTDFTFTISSLQPEDIATYYCQQGNTLPYTFGQGTKVEIK
As to B1, the relative binding was 110 % of IL6R-BF648/IL6R-L with human FcγRIa, 110 % of IL6R-BF648/IL6R-L in the experiment with human FcγRIIa type H, 108 % of IL6R-BF648/IL6R-L in the experiment with human FcγRIIb and 114 % of IL6R-BF648/IL6R-L in the experiment with human FcγRIIIa type V.

B2: IL6R-BP136/IL6R-L (antibody, human IgG1, name in EU numbering)
heavy: QVQLQESGPGLVKPSETLSLTCAVSGHSISHDHAWSWVRQPPGEGLEWIGFISYSGITNYNPSLQGRVTISRDNSKNTLYLQMNSLRAEDTAVYYCARSLARTTAMDYWGEGTLVTVSSASTKGPSVFPLAPSSKSTSGGTAALGCLVKDYFPEPVTVSWNSGALTSGVHTFPAVLQSSGLYSLSSVVTVPSSSLGTQTYICNVNHKPSNTKVDKKVEPKSCDKTHTCPPCPAPELLGGDSVFLFPPKPKDTLMISRTPEVTCVVVDVSHEDPEVKFNWYVDGVEVHNAKTKPREEQYNSTYRVVSVLTVLHQDWLNGKEYKCKVSNAALPAPIEKTISKAKGQPREPQVYTLPPSRDELTKNQVSLTCLVKGFYPSDIAVEWESNGQPENNYKTTPPVLDSDGSFFLYSKLTVDKSRWQQGNVFSCSVMHEALHNHYTQESLSLSP
light: DIQMTQSPSSLSASVGDRVTITCRASQDISSYLNWYQQKPGKAPKLLIYYTSRLHSGVPSRFSGSGSGTDFTFTISSLQPEDIATYYCQQGNTLPYTFGQGTKVEIK
For the molecule B2, the relative binding with human FcγRIa is 117 % of IL6R-BF648/IL6R-L; with human FcγRIIa type H, 103 % of IL6R-BF648/IL6R-L; in the experiment with human FcγRIIb, 119 % of IL6R-BF648/IL6R-L; in the experiment with human FcγRIIIa type V, 102 % of IL6R-BF648/IL6R-L.

B3: IL6R-BP118/IL6R-L (antibody, human IgG1, name in EU numbering)
heavy: QVQLQESGPGLVKPSETLSLTCAVSGHSISHDHAWSWVRQPPGEGLEWIGFISYSGITNYNPSLQGRVTISRDNSKNTLYLQMNSLRAEDTAVYYCARSLARTTAMDYWGEGTLVTVSSASTKGPSVFPLAPSSKSTSGGTAALGCLVKDYFPEPVTVSWNSGALTSGVHTFPAVLQSSGLYSLSSVVTVPSSSLGTQTYICNVNHKPSNTKVDKKVEPKSCDKTHTCPPCPAPELLGGDSVFLFPPKPKDTLMISRTPEVTCVVVDVSHEDPEVKFNWYVDGVEVHNAKTKPREEQYNSTYRVVSVLTVLHQDWLNGKEYKCKVSNSALPAPIEKTISKAKGQPREPQVYTLPPSRDELTKNQVSLTCLVKGFYPSDIAVEWESNGQPENNYKTTPPVLDSDGSFFLYSKLTVDKSRWQQGNVFSCSVMHEALHNHYTQESLSLSP
light: DIQMTQSPSSLSASVGDRVTITCRASQDISSYLNWYQQKPGKAPKLLIYYTSRLHSGVPSRFSGSGSGTDFTFTISSLQPEDIATYYCQQGNTLPYTFGQGTKVEIK
With B3, the relative binding with human FcγRIa is 101 % of IL6R-BF648/IL6R-L; with human FcγRIIa type H, 128 % of IL6R-BF648/IL6R-L; in the experiment with human FcγRIIb, 104 % of IL6R-BF648/IL6R-L; with human FcγRIIIa type V it was 144 % of IL6R-BF648/IL6R-L.

B4: IL6R-BP911/IL6R-L (antibody, human IgG1, name in EU numbering)
heavy: QVQLQESGPGLVKPSETLSLTCAVSGHSISHDHAWSWVRQPPGEGLEWIGFISYSGITNYNPSLQGRVTISRDNSKNTLYLQMNSLRAEDTAVYYCARSLARTTAMDYWGEGTLVTVSSASTKGPSVFPLAPSSKSTSGGTAALGCLVKDYFPEPVTVSWNSGALTSGVHTFPAVLQSSGLYSLSSVVTVPSSSLGTQTYICNVNHKPSNTKVDKKVEPKSCDKTHTCPPCPAPELLGGDSVFLFPPKPKDTLMISRTPEVTCVVVDVSHEDPEVKFNWYVDGVEVHNAKTKPREEQYNSTYRVVSVLTVLHQDWLNGKEYKCKVSNKALPKPIEKTISKAKGQPREPQVYTLPPSRDELTKNQVSLTCLVKGFYPSDIAVEWESNGQPENNYKTTPPVLDSDGSFFLYSKLTVDKSRWQQGNVFSCSVMHEALHNHYTQESLSLSP
light: DIQMTQSPSSLSASVGDRVTITCRASQDISSYLNWYQQKPGKAPKLLIYYTSRLHSGVPSRFSGSGSGTDFTFTISSLQPEDIATYYCQQGNTLPYTFGQGTKVEIK
For the molecule B4, the relative binding was 52 % of IL6R-BF648/IL6R-L with human FcγRIa, 108 % of IL6R-BF648/IL6R-L with human FcγRIIa type H, 119 % of IL6R-BF648/IL6R-L with human FcγRIIb and 120 % of IL6R-BF648/IL6R-L in the experiment with human FcγRIIIa type V.

B5: IL6R-BP142/IL6R-L (antibody, human IgG1, name in EU numbering)
heavy: QVQLQESGPGLVKPSETLSLTCAVSGHSISHDHAWSWVRQPPGEGLEWIGFISYSGITNYNPSLQGRVTISRDNSKNTLYLQMNSLRAEDTAVYYCARSLARTTAMDYWGEGTLVTVSSASTKGPSVFPLAPSSKSTSGGTAALGCLVKDYFPEPVTVSWNSGALTSGVHTFPAVLQSSGLYSLSSVVTVPSSSLGTQTYICNVNHKPSNTKVDKKVEPKSCDKTHTCPPCPAPELLGGDSVFLFPPKPKDTLMISRTPEVTCVVVDVSHEDPEVKFNWYVDGVEVHNAKTKPREEQYNSTYRVVSVLTVLHQDWLNGKEYKCKVSNNALPAPIEKTISKAKGQPREPQVYTLPPSRDELTKNQVSLTCLVKGFYPSDIAVEWESNGQPENNYKTTPPVLDSDGSFFLYSKLTVDKSRWQQGNVFSCSVMHEALHNHYTQESLSLSP
light: DIQMTQSPSSLSASVGDRVTITCRASQDISSYLNWYQQKPGKAPKLLIYYTSRLHSGVPSRFSGSGSGTDFTFTISSLQPEDIATYYCQQGNTLPYTFGQGTKVEIK
For B5, the relative binding was 98 % of IL6R-BF648/IL6R-L with human FcγRIa, 97 % of IL6R-BF648/IL6R-L with human FcγRIIa type H, 106 % of IL6R-BF648/IL6R-L with human FcγRIIb and 102 % of IL6R-BF648/IL6R-L with human FcγRIIIa type V.

B6: IL6R-G1d/IL6R-L (antibody, human IgG1)
heavy: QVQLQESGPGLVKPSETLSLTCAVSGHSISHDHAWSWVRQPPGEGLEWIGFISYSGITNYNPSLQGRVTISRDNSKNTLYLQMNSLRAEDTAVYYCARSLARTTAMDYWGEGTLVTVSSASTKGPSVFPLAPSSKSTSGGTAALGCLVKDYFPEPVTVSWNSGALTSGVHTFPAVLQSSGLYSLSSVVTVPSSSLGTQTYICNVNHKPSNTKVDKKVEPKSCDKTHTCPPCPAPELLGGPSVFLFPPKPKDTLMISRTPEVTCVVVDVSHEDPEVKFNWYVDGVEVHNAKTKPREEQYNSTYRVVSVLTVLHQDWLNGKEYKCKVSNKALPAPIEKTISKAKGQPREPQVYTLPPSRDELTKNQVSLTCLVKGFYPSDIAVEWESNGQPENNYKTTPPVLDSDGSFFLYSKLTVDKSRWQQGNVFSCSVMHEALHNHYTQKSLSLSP
light: DIQMTQSPSSLSASVGDRVTITCRASQDISSYLNWYQQKPGKAPKLLIYYTSRLHSGVPSRFSGSGSGTDFTFTISSLQPEDIATYYCQQGNTLPYTFGQGTKVEIK
notes: Anti-human IL-6 receptor IgG1 with the G1d constant region (C-terminal Gly and Lys removed); also called IgG1
On to B6, for which the relative binding with human FcγRIa is 140 % of IL6R-BF648/IL6R-L; with human FcγRIIa type H, 1670 % of IL6R-BF648/IL6R-L; in the experiment with human FcγRIIb it was 62 % of IL6R-BF648/IL6R-L; in the experiment with human FcγRIIIa type V it was 3350 % of IL6R-BF648/IL6R-L.

B7: IL6R-BP119/IL6R-L (antibody, human IgG1, name in EU numbering)
heavy: QVQLQESGPGLVKPSETLSLTCAVSGHSISHDHAWSWVRQPPGEGLEWIGFISYSGITNYNPSLQGRVTISRDNSKNTLYLQMNSLRAEDTAVYYCARSLARTTAMDYWGEGTLVTVSSASTKGPSVFPLAPSSKSTSGGTAALGCLVKDYFPEPVTVSWNSGALTSGVHTFPAVLQSSGLYSLSSVVTVPSSSLGTQTYICNVNHKPSNTKVDKKVEPKSCDKTHTCPPCPAPELLGGDSVFLFPPKPKDTLMISRTPEVTCVVVDVSHEDPEVKFNWYVDGVEVHNAKTKPREEQYNSTYRVVSVLTVLHQDWLNGKEYKCKVSNMALPAPIEKTISKAKGQPREPQVYTLPPSRDELTKNQVSLTCLVKGFYPSDIAVEWESNGQPENNYKTTPPVLDSDGSFFLYSKLTVDKSRWQQGNVFSCSVMHEALHNHYTQESLSLSP
light: DIQMTQSPSSLSASVGDRVTITCRASQDISSYLNWYQQKPGKAPKLLIYYTSRLHSGVPSRFSGSGSGTDFTFTISSLQPEDIATYYCQQGNTLPYTFGQGTKVEIK
On to B7, for which the relative binding is 117 % of IL6R-BF648/IL6R-L with human FcγRIa, 133 % of IL6R-BF648/IL6R-L with human FcγRIIa type H, 110 % of IL6R-BF648/IL6R-L with human FcγRIIb and 145 % of IL6R-BF648/IL6R-L with human FcγRIIIa type V.

B8: IL6R-BP121/IL6R-L (antibody, human IgG1, name in EU numbering)
heavy: QVQLQESGPGLVKPSETLSLTCAVSGHSISHDHAWSWVRQPPGEGLEWIGFISYSGITNYNPSLQGRVTISRDNSKNTLYLQMNSLRAEDTAVYYCARSLARTTAMDYWGEGTLVTVSSASTKGPSVFPLAPSSKSTSGGTAALGCLVKDYFPEPVTVSWNSGALTSGVHTFPAVLQSSGLYSLSSVVTVPSSSLGTQTYICNVNHKPSNTKVDKKVEPKSCDKTHTCPPCPAPELLGGDSVFLFPPKPKDTLMISRTPEVTCVVVDVSHEDPEVKFNWYVDGVEVHNAKTKPREEQYNSTYRVVSVLTVLHQDWLNGKEYKCKVSNQALPAPIEKTISKAKGQPREPQVYTLPPSRDELTKNQVSLTCLVKGFYPSDIAVEWESNGQPENNYKTTPPVLDSDGSFFLYSKLTVDKSRWQQGNVFSCSVMHEALHNHYTQESLSLSP
light: DIQMTQSPSSLSASVGDRVTITCRASQDISSYLNWYQQKPGKAPKLLIYYTSRLHSGVPSRFSGSGSGTDFTFTISSLQPEDIATYYCQQGNTLPYTFGQGTKVEIK
In the case of B8, the relative binding with human FcγRIa is 118 % of IL6R-BF648/IL6R-L; with human FcγRIIa type H, 135 % of IL6R-BF648/IL6R-L; with human FcγRIIb it was 113 % of IL6R-BF648/IL6R-L; with human FcγRIIIa type V, 157 % of IL6R-BF648/IL6R-L.
